Details: Bos taurus, Thermal, DSC, reversible: yes, whole UniProt chain shown

B1: Alpha-lactalbumin wild type, P00711 (protein)
chain: MMSFVSLLLVGILFHATQAEQLTKCEVFRELKDLKGYGGVSLPEWVCTTFHTSGYDTQAIVQNNDSTEYGLFQINNKIWCKDDQNPHSSNICNISCDKFLDDDLTDDIMCVKKILDKVGINYWLAHKALCSEKLDQWLCEKL
In the case of B1, the “heat capacity change of unfolding” value (pH 3, 44.3 °C, acetate 10 mM) is reported as 1.3 kcal/mol/K, the “unfolding enthalpy (calorimetric)” value (pH 3, 44.3 °C, acetate 10 mM) is reported as 25.6 kcal/mol and the “heat capacity change of unfolding” value (pH 3.2, 29.8 °C, acetate 10 mM) is reported as 1.5 kcal/mol/K. For the same protein, the “unfolding enthalpy (calorimetric)” value (pH 3.2, 29.8 °C, acetate 10 mM) was 21.4 kcal/mol, the Tm (pH 3.2, acetate 10 mM) was 29.8 °C and the “heat capacity change of unfolding” value (pH 3.2, acetate 10 mM) was 0.92 kcal/mol/K. The “unfolding enthalpy (calorimetric)” value (pH 3.2, acetate 10 mM) was 36.1 kcal/mol, the “unfolding enthalpy (van 't Hoff)” value (pH 3.2, acetate 10 mM) was 43.5 kcal/mol and the “heat capacity change of unfolding” value (pH 3.5, 41 °C, acetate 10 mM) was 1.6 kcal/mol/K. For the same protein, the “unfolding enthalpy (calorimetric)” value (pH 3.5, 41 °C, acetate 10 mM) was 13.1 kcal/mol, the Tm (pH 3.5, acetate 10 mM) was 41 °C and the “heat capacity change of unfolding” value (pH 3.5, acetate 10 mM) was 1.19 kcal/mol/K. For the same protein, the “unfolding enthalpy (calorimetric)” value (pH 3.5, acetate 10 mM) was 47.8 kcal/mol, the “unfolding enthalpy (van 't Hoff)” value (pH 3.5, acetate 10 mM) was 51.4 kcal/mol and the “heat capacity change of unfolding” value (pH 4.2, 57 °C, acetate 10 mM) was 1.7 kcal/mol/K. The “unfolding enthalpy (calorimetric)” value (pH 4.2, 57 °C, acetate 10 mM) was 2.72 kcal/mol, the Tm (pH 4.2, acetate 10 mM) was 57 °C and the “heat capacity change of unfolding” value (pH 4.2, acetate 10 mM) was 1.61 kcal/mol/K. For the same protein, the “unfolding enthalpy (calorimetric)” value (pH 4.2, acetate 10 mM) was 64.8 kcal/mol, the “unfolding enthalpy (van 't Hoff)” value (pH 4.2, acetate 10 mM) was 59.8 kcal/mol and the Tm (pH 8, Tris-HCl 5 mM) was 64.3 °C. For the same protein, the “heat capacity change of unfolding” value (pH 8, Tris-HCl 5 mM) was 1.7 kcal/mol/K, the “unfolding enthalpy (calorimetric)” value (pH 8, Tris-HCl 5 mM) was 70.6 kcal/mol and the “unfolding enthalpy (van 't Hoff)” value (pH 8, Tris-HCl 5 mM) was 69.1 kcal/mol.

From FireProtDB (doi:10.1021/bi00173a036)
